Test results from EP3801029B1 (Morehouse School of Medicine, dated 2024).

B1: synthetic HIV-1 Nef SMRmut peptide (AGFPVAAAGFPVDYKDDDDK) (peptide)
peptide: AGFPVAAAGFPVDYKDDDDK
notes: also called negative control peptide; mutant SMR peptide

Key:
[1] = target: T1, Mortalin (UniProt P38646 47-679); assay: peptide pull-down from Jurkat cell lysate, Western blot
T1 construct: Endogenous protein from Jurkat cells (a human cell line); also called Glucose-regulated protein 75; GRP75

[2] = target: T2, E. coli DnaK protein (Escherichia coli, UniProt P0A6Y8 2-638); assay: ANTI-FLAG M2 pull-down from E. coli lysate, Western blot with anti-DnaK antibody
T2 construct: Endogenous protein from E. coli lysate; also called heat shock protein 70; Hsp70

[3] = target: T1, Mortalin; assay: peptide pull-down from Jurkat cell lysate, Western blot with anti-mortalin antibody

T1 sequence (P38646 47-679 limits assumed): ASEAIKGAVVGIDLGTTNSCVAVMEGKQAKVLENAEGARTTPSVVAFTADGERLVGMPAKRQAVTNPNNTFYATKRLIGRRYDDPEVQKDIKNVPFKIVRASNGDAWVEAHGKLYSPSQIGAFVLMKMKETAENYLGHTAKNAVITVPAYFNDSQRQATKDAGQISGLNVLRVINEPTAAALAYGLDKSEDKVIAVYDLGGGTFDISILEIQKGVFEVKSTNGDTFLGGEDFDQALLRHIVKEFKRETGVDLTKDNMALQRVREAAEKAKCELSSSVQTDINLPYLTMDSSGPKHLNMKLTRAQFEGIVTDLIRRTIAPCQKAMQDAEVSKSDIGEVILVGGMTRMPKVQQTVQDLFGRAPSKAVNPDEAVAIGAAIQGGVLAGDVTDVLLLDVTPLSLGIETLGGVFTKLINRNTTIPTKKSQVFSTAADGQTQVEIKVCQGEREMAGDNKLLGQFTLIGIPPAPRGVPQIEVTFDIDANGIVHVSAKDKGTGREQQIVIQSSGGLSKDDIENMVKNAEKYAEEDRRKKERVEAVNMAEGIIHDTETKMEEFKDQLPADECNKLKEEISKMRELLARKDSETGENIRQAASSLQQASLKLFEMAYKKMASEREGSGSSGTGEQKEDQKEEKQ
T2 sequence (P0A6Y8 2-638 limits assumed): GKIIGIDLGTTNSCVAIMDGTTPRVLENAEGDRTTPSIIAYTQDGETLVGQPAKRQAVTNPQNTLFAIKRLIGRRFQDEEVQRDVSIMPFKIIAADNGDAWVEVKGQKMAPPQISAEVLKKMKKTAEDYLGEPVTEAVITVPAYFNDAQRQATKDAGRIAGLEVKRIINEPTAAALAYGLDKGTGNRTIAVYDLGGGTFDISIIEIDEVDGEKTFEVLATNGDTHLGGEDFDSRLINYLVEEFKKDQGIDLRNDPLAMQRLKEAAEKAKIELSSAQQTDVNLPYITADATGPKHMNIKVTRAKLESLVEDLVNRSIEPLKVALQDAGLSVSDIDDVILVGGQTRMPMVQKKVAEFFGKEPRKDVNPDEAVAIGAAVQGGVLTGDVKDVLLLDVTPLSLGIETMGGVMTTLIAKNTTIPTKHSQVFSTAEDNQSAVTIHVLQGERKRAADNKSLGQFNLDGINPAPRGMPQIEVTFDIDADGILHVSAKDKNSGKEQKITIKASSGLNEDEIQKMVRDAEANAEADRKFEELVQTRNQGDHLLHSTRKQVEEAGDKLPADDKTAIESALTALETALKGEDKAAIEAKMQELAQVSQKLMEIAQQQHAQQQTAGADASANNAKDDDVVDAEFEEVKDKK

Row | Binder | binding result [1] | binding result [2] | binding result [3]
1 | VGFPVAAVGFPVDYKDDDDK (also called SMR peptide; antagonist) [synthetic HIV-1 Nef SMRwt peptide (VGFPVAAVGFPVDYKDDDDK)] | binds |  | 
2 | B1 |  | no binding (tested: 1 µg peptide with 1 mg E. coli lysate) | no binding
